For the assay, the target named is purified soluble human FasL (AL-1) (human). Put plainly: SEC.

Turning to “purified soluble human FasL (AL-1) (ligand)”, the stoichiometry N is 3.

Values taken from paper PMC2199173.
